Data published in a protein production outcome set (Wang et al. 2014).

Experiment: label from the status in PepcDB records

| Sequence | protein production |
| --- | --- |
| MSRQAEDLMVRTLSDASSLFGKERYKKALEKLDKAEKLAEKTKRTDILCRVLLQKGAVMNSMGKPDEGQDLYDKALDIYRTSNLNEQESSVLKHTLSNTFSELAKHFKMVDSIENAEKCYLNEIKVYEILLEKDPEDEDSNLEIARVFKAIGDLYEYFKPEKMDPETERQYYEKILDIREKAFELLPDSETYIYDLAHALGKLVDYYIIRQDYKSAIQFQERVVEVMEELIDLLANWKDLKAKSNAYDKLGSLYAEIGEEELAQEQYSKALEYYGMIFDDELWPLSVKAMLASELMERGKTLLLLKKYESAKESMDVALDFLEGVDKEEMEDSTEESLDLASVILGEGYEEESEDSGYLAELAGIFREYAKTLSDLNRNEEAEEFTAKSEKILRKLA | failed |
| MSFCKLVSFVLILHLLNSCLISCSSNDLSQIPKNFLSLAKREDFFDWMVGIRRRIHENPELGYEEVETSKLVKTELDKMGVSYKNPVAVTGVIGYVGTGHAPFVALRADMDALPIQEMVEWEHKSKIPGKMHACGHDAHTTMLLGAAKLLKEHQEELQEGGAGAKKIVEAGVLENVGAIFGLHVSNLLGLGQLSSREGLLMAGSGRFKATISGKGGHAALPQFAIDPVLAASNVILSLQHLVSREADPLDSQVVTVATFEGSDAFNVIPDSVTIGGTFRALLPKSFEQLKQRIVQVITTQASVNMCNATVDFLEDETPPFPPTVNNKTLHLFYKNVSVDMLGIENYVETLPVMVSEDFAFYQQAIPGHFSFVGMQNKSHSPMANPHSPFFEVNEELLPYGASLLASLATRYLLDSSSSPNKDEL | failed |
| MATASIAIAETPLVNYALRRGDDALVLGHRLSEWCGHAPMLEEDMALANIGLDLIGQARELFNYAAEVEGAANTEDSLAYLRDVRQYRNLLLVEQPNGDFARTMLRQLFYSAFADSYWRAMMGSSDPTLAAIAAKSEKESAYHLRHASEWVIRLGDGTEESHRRAQAAVDELWAFTGEMFQVDDGDAALIADGIAIDPERLRAGWSETVASVLARATLQQPSSSWMQKGGRAGHHSEHLGHLLSELQSLQRSFPGATW | failed |
| MASHLFTRSRISLLKTLKPNPFTSASPIRAISGTPFLSQDPLLATESTDHDPSNHQSTSTPLPPNPATGSPLYQENWRSPIPNTPSFNQSLVPLGFLNQAPAPRIRALSETLDMNSLLNMFADWTASQRWSDMKQLFEVWVRSLDKNGKPNKPDVNLYNHYLRANLMMGASAGDMLDLVAPMEEFSVEPNTASYNLVLKAMYQARETEAAMKLLERMLLLGKDSLPDDESYDLVIGMHFGVGKNDEAMKVMDTALKSGYMLSTSVFTECVRSCVAKGRTDTLVSIIERCKAVDRNKSLCPSWILCNYIAEVAIQEDNSKLAFYAFEFMFKWITRGEMARPSVIFSVDEGLVVAGLASAARTCSSSLVEGSWTILKQSLRGRKAANPASYIAKINAYASLGNLQKAFTSLHELESAYADSEKEVVEEMLSPFTSLYPLVVACSKKGFETLDEVYFQLESLSQGDTPYKSVAALNCIILGCANTWDLDRAYQTFEAISASFGLTPNIDSYNALLYAFGKVKKTFEATNVFEHLVSIGVKPDSRTYSLLVDAHLINRDPKSALTVVDDMIKAGFEPSRETLKKLRRRCVREMDDENDDQVEALAKKFQIRMGSENRRNMLFNIDYSRGRALNN | failed |
| KSHSRTLTPTPDGKTMLRPVLRLTSAMTREVATDHKAFYVLFTWDQEAQIYELVAQTVSERKNWCALITETAGSLKV | failed |
| MTDDRYTVISADCHAGADLLDYRPYLAKRHHDAFDAWAATYVNPYEDLLADTADRNWNSERRLAELAADGIVAEVVFPNTIPPFFPSASLMAPAPTAAEFEQRWAGLRAHNRWLADFCAAAPGRRAGVFQILLNDVEEAVKEISWAAGAGLRGGLLLPGTPPGSGLPELYSKAYDPIWAVCEELDVPVNHHAGSASPPLGDEPAARAVFMVETTWFSHRALWHLVFGGAFRRHPGLRLVLTEQGSGWIPGVLDMLDYYHGRLVAAGPKSATAEAKFGAGLDRAMGKGPSEVWRDNCFVGASFMRPHEVPLRDRIGLDKIMWGSDYPHDEGTYPYSREGLRIAYAGLPRTEIAAMAGGNAARVYGFDLSLLDPIAAKVGPTVAELARPLEEPPADATSPVFARGGSVRVW | failed |
| MTRIIPFALAVAALATAGAAQASTMVIGGGAAKECSDSALKGRSDKRSVLACTSALELENLNFRDRARTYVNRGVLQMRQKDFGAARSDFDAAGAIDPNLGEVFVNRGAAYVGEERYREGVEQIDKGLALGVKEPEKAWFNRGLANEGLGDLKAAFRDYSRAAELNPDWPAPKLELTRFSVKRP | failed |
| MAPFTLYTHAGPGPNPVKVAMALEHLGLDYDCIPLAFGEGKGTVKDPEYTSKVNPNGRVPGLIDHENNDFTVFESAAILQYLAEKTIQYDTSGKLAGSTPEERATVNKWLAWQVSGLGPYQGQLVWFLAFHEGAHGEKPNGSVIARYQAEVERLRSVLEKHLASAENGFVALGRLTIADFAILPWLKISVLAGSALKSFEEYPAINAYIKKLDALPEVQAAYKKAVPPMQ | failed |
| KNVNNAEEYWDVIDLRVYPGKNGYFELYDDDGITYEYEKGKYYIIPITWDEDKQELTIGKKRGELEMSKKIIKIIWVEKGKGIEHTKPDVEIEYNGKETITVKRG | failed |
| MTQDEWIDIPQGWSQGRTIYGGLVAGLLMHKALSVMNDESKNLLSTSITFVGPVNEGRVRLTVEILRQGKSVTTIEARLWQDQAVQTILIASFGQPRSLEHHHHHH | not failed |
| MSQMSPGQARVVDPILSTHARGYRQSTLIGKKLFPVAPVAQYGGKILTFGKEAFRLYNTKRAPGANTKRIDFGYEGDPYSIVPSALEAKVPRELMRDASQVPGIDLGARSVNTVLRIMALAHEHECAQIALDPAKYNADHKVKLVGSARWTSPDSDPTKDVETAKEAIADSIGMEPNRLMLSRKALSACKYHPKLIERVKYTRAESITIDMLKALWEVEEIVVGTARVATGANDSFGDVWGPDVWLGYVSDNPDPSVEEPSFGYTYQIEGHPLVEVPYWDNNAKSWIYGVSDDNTPALSGMLAGYLIEDAGLPAA | not failed |
| MYVFIEPNDLKDYLITVYDERNRAIRKQTQVYCFYLMIVLFVALFFFFPCLTIRDLVSYKLPLIFAYLYLIIRSLVAKKMEALGKITTNSQKPPFDTSQVLC | failed |
| MDVTWTVKYITEFVGTALLIIMGNGAVANVELKGTKAHAQSWMIIGWGYGLGVMLPAVAFGNITSQINPAFTLGLAASGLFPWAHVAQYIIAQVLGAMFGQLLIVMVYRPYYLKTQNPNAILGTFSTIDNVDDNDKKTRLGATINGFLNEFVGSFVLFFGAVAATNIFFGSQSITWMTNYLKGQGADVSSSDIMNQIWVQASGASASKMVAHLFLGFLVMGLVVALGGPTGPGLNPARDFGPRLVHSLLPKSVLGEAKGSSKWWYAWVPVLAPILASLAAVALFKMIYL | failed |
| MAQVEAPVIGITVLYFLAIIIIGYYSRQRLKSATDYYVAGRQVGAVVNGLALESTYLSPASMLGLPAYIFILGYPFWWAMSAIIAGMPIATLLTASALRKYAPTSFADYYADRYNDQRLRWLVGIVTVIGAVLYITLSLVGMALFLLAVAKVPYIIGLIVGTIIVMLYVVWGGMIATSWNAAFQAFLMTVAAVIAAAVIVIKLGGLGGFYEAVLANNPKFWNTPSDPEPPHLLSGTWIAVIGWFFVWHYGFATMPYTVVRFFTTMDIKTARRSIFWCTLAAGIFYMALEIIGAASKLMIETGPMGGEGANAVKILQSYMAQYGVGGWTDYSMIAAVEALQNPWVLGILCAGGLAIAMSTAAGWVMVVNTLLTRDWGDMLLKSKFAKEKPVTLARIISVIFLIVGFLVAINPPGLVLDLSGWAFVVIISALGPGLVLGLWWKRATRAAMWTTAIVMTPLHLYAWLKAKLVLGHHAFFFLNDVLFGNAKALITPHQVWAIPVGFLLFIIVSLITKPVEEEAVQKYCVELTKEV | failed |
| MTLFDGTPFEWAPGRIEVRARRECGASRKSLVVAAGVSYLARMIFSFDAFVTNALFDRSGRAMFALGDGTVRLQTDEGFVTVEAHGGPLGGAVLAAAVHPSGAGIVTGGDDGRVVWSRIEGGEVVATLIAEVKNKWIEHVAASAASGLIAFTVGKEVHVRDAADPAFARTFPHEKTVSGLAFEPKGRRLASATYGGAYLWYARIADQKPTVLKWAGSHIAVEFSPDGKFLISSMQENQLHGWRLSDGKDMRMGGYPSKIKSVAFFDKGNLLATAGASGAVIWPFAGANGPMGKEAAEIGFSRDSMVVRVAGIDPQPVCIAGQDSGKIWAAHMRNGRIETLKAEKGAPISALSVSADGKRLAWGDESGEAGVLEIPDLSGPRQFVG | failed |
